The target of assay [1] is F906-(G2S1)4-IL2(E62A)-(G2S1)6-HLE (IL-2mut). The assay can be described thus: BLI.
Assay [2] has as its target F906-(G2S1)4-IL2-(G2S1)6-HLE (IL2wt). The assay can be described thus: BLI.

B1: CD122 (receptor)
chain: AVNGTSQFTCFYNSRANISCVWSQDGALQDTSCQVHAWPDRRRWNQTCELLPVSQASWACNLILGAPDSQKLTTVDIVTLRVLCREGVRWRVMAIQDFKPFENLRLMAPISLQVVHVETHRCNISWEISQASHYFERHLEFEARTLSPGHTWEEAPLLTLKQKQEWICLETLTPDTQYEFQVRVKPLQGEFTTWSPWSQPLAFRTKPAALGKD
modifications: biotinylated (site not stated)
What is called Kd is the equilibrium constant for the complex coming apart. As to B1, the Kd in assay [1] and in assay [2] was roughly 40 nM each time.

The values are drawn from patent US20230340054A1 (published 2023).
